Test results as given in patent US9573983B2, “Compositions including I-domain antigen conjugate compounds and methods for treatment of autoimmune disorders” (University of Kansas, priority 2012, dated 2017).
“And” between values parts separate entries of the source, which are not always exact repeats. Equal entries are not always repeated.

What was measured:
EAE mouse model = assay: Suppression of EAE, prophylactic and vaccine-like treatment (Example 2); type: in vivo, SJL/J female mice; conditions: for change in body weight: p<0.005, days 12-24
Procedure: Six-to-eight week old SJL/J female mice were immunized subcutaneously with 200 μg PLP139-151 peptide in a 0.2 ml emulsion consisting of equal volumes of PBS and complete Freund's adjuvant (CFA) containing killed mycobacterium tuberculosis strain H37RA at a final concentration of 4 mg/ml (Difco, Detroit, Mich.). The PLP/CFA emulsion was administered to regions above the shoulder and the flanks (total of 4 sites, 50 μl at each injection site). In addition, 200 ng of pertussis toxin was injected intraperitoneally on the day of immunization (day 0) and 2 days post-immunization.
The mice then received either intravenous or subcutaneous injections of IDAC (10 or 26 nmol/injection) or peptides (100 nmol/injection for Ac-PLP-BPI-NH2-2 or 50 nmol/injection/mouse for Ac-PLP-cIBR1-NH2). The prophylactic disease suppression was carried out with subcutaneous or intravenous injections of IDAC molecules on days 4 and 7, or BPI molecules on days 4, 7, and 10. Mice receiving vaccine-like treatment were given subcutaneous injections of IDAC and BPI molecules at 11, 8, and 5 days prior to the induction of disease. As negative controls, mice were treated with PBS, 1-domain, and GMB-I-domain. Disease progression was evaluated by monitoring the change in weight of the mice and clinical scoring based on the severity of nerve damage ranging from 0 to 5: 0—no clinical symptoms of disease; 1—tail weakness or limp tail; 2—paraparesis (weakness or partial paralysis of one or two hind limbs); 3—paraplegia (complete paralysis of two hind limbs); 4—paraplegia with forelimb weakness or paralysis; 5—moribund (at this point, the affected mice were euthanized).
(§1) Statistical differences among the groups in clinical disease scores were determined by calculating the average score for each mouse from day 12 to day 17 by one-way analysis of variance followed by Fisher's least significant difference. Statistical differences in body weight among groups were also analyzed in the same fashion, but from day 12 to day 24. Comparison of cytokine concentrations was also performed by one-way analysis of variance. All analyses were performed using StatView (SAS Institute, Cary, N.C.).

splenocytes = assay: Cytokine levels in vitro from splenocytes of treated EAE mice (Q-Plex ELISA); type: cell-based, female SJL/J (H-2^s) mice; conditions: IDAC-3 26 nmol/injection s.c. days 4 and 7
Procedure: Representative spleens for each group (IDAC-3 or PBS) from Study 2 were harvested from female SJL/J (H-2^s) mice on days 13 and 35. Splenocytes were dispersed by gently smashing the spleen using the coarse portion of a 1 ml syringe in a petri dish containing RPMI 1640 medium (10% FBS, […]). The cells were then filtered through a 40 micrometer strainer. After centrifugation, the red blood cells were lysed using “ACK lysis buffer,” and the remaining white blood cells were washed three times with medium. Splenocytes (5×10^6 cells/ml) were cultured in parallel in the presence of 20 μM PLP and blank RPMI medium. Supernatants were collected at a 72 h time-point for the measurement of cytokine levels. The samples were then analyzed using a fully quantitative ELISA-based Q-Plex™ Mouse Cytokine-Screen (Quansys Biosciences, Logan, Utah).
as §1

[1] = 3 injections, vaccine-like s.c.
[2] = s.c. 26 nmol/injection days 4 and 7, vs PBS
[3] = vaccine-like s.c. 10 nmol on days -11, -8, -5

B1: I-domain: LFA-1 I-domain protein, SEQ ID NO: 1; negative control and carrier protein (protein, listed as Homo sapiens)
chain: MGNVDLVFLFDGSMSLQPDEFQKILDFMKDVMKKLSNTSYQFAAVQFSTSYKTEFDFSDYVKRKDPDALLKHVKHMLLLTNTFGAINYVATEVFREELGARPDATKVLIIITDGEATDSGNIDAAKDIIRYIIGIGKHFQTKESQETLHKFASKPASEFVKILDTFEKLKDLFTELQKKIY
suppression of progress of EAE (clinical score, change in body weight, incidence of disease) (EAE mouse model; two i.v. injections, 26 nmol/injection, days 4 and 7, vs PBS): neither the I-domain nor GMB-I-domain significantly suppressed the progress of EAE | onset of disease (EAE mouse model; two i.v. injections, 26 nmol/injection, days 4 and 7, vs PBS, I-domain controls): slight delay in the onset of the disease

B2: (Ac-HSLGKWLGHPDKFC-NH2)n-linker-I-domain (conjugate, listed as Homo sapiens)
chain 1: HSLGKWLGHPDKFC
chain 2: MGNVDLVFLFDGSMSLQPDEFQKILDFMKDVMKKLSNTSYQFAAVQFSTSYKTEFDFSDYVKRKDPDALLKHVKHMLLLTNTFGAINYVATEVFREELGARPDATKVLIIITDGEATDSGNIDAAKDIIRYIIGIGKHFQTKESQETLHKFASKPASEFVKILDTFEKLKDLFTELQKKIY
modifications: Ac, NH2 caps; maleimide linker; Chemically synthesized signal 1 moiety peptide with amino acids 139-151 of PLP protein modified with a terminal cysteine
notes: Ac-PLP-Cys-NH2 (capped) peptides conjugated via maleimide linkers to lysine residues of I-domain
maximum toxic concentration (estimated therapeutic window) (EAE mouse model; [1]): 26 nmol | minimum effective concentration (estimated therapeutic window) (EAE mouse model; [1]): 10 nmol | clinical scores, IDAC-3 compared with IDAC-1 (EAE mouse model; i.v. 26 nmol/injection days 4 and 7, p<0.005, days 12-17): better than IDAC-1 in suppressing EAE | disease incidence (EAE mouse model; i.v. 26 nmol/injection days 4 and 7, vs PBS): delays in disease incidence | onset of disease (clinical scores) (EAE mouse model; i.v. 26 nmol/injection days 4 and 7, vs PBS, IDAC molecules): delayed the onset of disease | clinical scores (suppression of EAE) (EAE mouse model; i.v. 26 nmol/injection days 4 and 7, vs PBS, p<0.0005, days 12-17): significantly better at suppressing EAE than PBS | body weight change (EAE mouse model; i.v. 26 nmol/injection days 4 and 7, vs PBS, p<0.05, days 12-24): significantly more effective than PBS in suppressing disease | disease incidence (EAE mouse model; [2]): significantly more efficacious than PBS in suppressing EAE | clinical scores (suppression of EAE) (EAE mouse model; s.c. 26 nmol/injection days 4 and 7, vs PBS, p<0.005, days 12-17): significantly more efficacious than PBS in suppressing EAE | change in body weight (EAE mouse model; [2]): significantly more efficacious than PBS in suppressing EAE | anaphylaxis (EAE mouse model; [3]): did not result in anaphylaxis | efficacy of low dose compared with 26 nmol dose (EAE mouse model; [3]): not as effective as the 26 nmol dose | efficacy of high dose compared with other groups (EAE mouse model; vaccine-like s.c. 26 nmol/injection days -11, -8, -5, four animals, no statistical analysis): seemed to be better than the lower dose (10 nmol/injection) group and similar to the Ac-PLP-BPI-NH2-2-treated group | toxic effect / adverse events (mice affected) (EAE mouse model; vaccine-like s.c. 26 nmol/injection, third injection (day -5)): two of six mice and 2 of the 6 mice | potency compared with Ac-PLP-BPI-NH2-2 (EAE mouse model; vaccine-like s.c. days -11, -8, -5, IDAC-3 10 nmol/injection vs Ac-PLP-BPI-NH2-2 100 nmol/injection): less potent than Ac-PLP-BPI-NH2-2 | clinical scores (suppression of EAE) (EAE mouse model; vaccine-like s.c. days -11, -8, -5, IDAC-3 10 nmol/injection, Ac-PLP-BPI-NH2-2 100 nmol/injection, vs PBS, p<0.005, days 12-17): significantly better clinical scores | change in body weight (EAE mouse model; vaccine-like s.c. days -11, -8, -5, IDAC-3 10 nmol/injection, Ac-PLP-BPI-NH2-2 100 nmol/injection, vs PBS): significantly better | onset of disease (incidence of disease) (EAE mouse model; vaccine-like s.c., IDAC-3 26 nmol/injection days -11, -8, Ac-PLP-BPI-NH2-2 100 nmol/injection days -11, -8, -5): Delay in the onset of disease | relapse of disease (long-term effect) (EAE mouse model; vaccine-like s.c., IDAC-3 26 nmol/injection days -11, -8, Ac-PLP-BPI-NH2-2 100 nmol/injection days -11, -8, -5, days 45-55): long-term effect in suppressing relapse of the disease | clinical scores (suppression of EAE) (EAE mouse model; vaccine-like s.c., IDAC-3 26 nmol/injection days -11, -8, vs PBS, p<0.0001, days 12-17 and 45-55): suppressed EAE significantly better than PBS | change of body weight (EAE mouse model; vaccine-like s.c., IDAC-3 26 nmol/injection days -11, -8, vs PBS, p<0.0001, days 12-24): suppressed EAE significantly better than PBS | IL-5 level compared to PBS-treated group (splenocytes; day 13): no significant difference | IL-10 level (splenocytes; day 13): could not be detected | IL-2 level, PBS-treated vs IDAC-3-treated group (splenocytes; day 13, p<0.05): IL-2 cytokine levels were higher than in the IDAC-3-treated group | IL-2 level, PBS-treated vs IDAC-3-treated group (splenocytes; day 35): no significant difference | IL-17 level compared to PBS-treated group (splenocytes; day 35, p<0.0001): fourfold lower | IL-5 level compared to PBS-treated group (splenocytes; day 35, p<0.0005): significantly higher | IL-12 level compared to PBS-treated group (splenocytes; day 35, p<0.005): significantly lower | IL-10 level compared to PBS group (splenocytes; day 35, p<0.05): significantly higher levels
